Here are results for one substance from patent US20240408227A1.

One may read the Kd as the free concentration of one partner at which half of the binding sites on the other are occupied at equilibrium, for simple one-to-one binding. A word on the kon: it is a measure of how fast the partners come together.

In this assay the target is recombinant human TfR1 (human) (UniProt P02786). The assay is described as follows: SPR array (Carterra LSA), IgG captured, TfR as analyte, 25 C.
Sequence of recombinant human TfR1 (human) (P02786 89-760 limits assumed): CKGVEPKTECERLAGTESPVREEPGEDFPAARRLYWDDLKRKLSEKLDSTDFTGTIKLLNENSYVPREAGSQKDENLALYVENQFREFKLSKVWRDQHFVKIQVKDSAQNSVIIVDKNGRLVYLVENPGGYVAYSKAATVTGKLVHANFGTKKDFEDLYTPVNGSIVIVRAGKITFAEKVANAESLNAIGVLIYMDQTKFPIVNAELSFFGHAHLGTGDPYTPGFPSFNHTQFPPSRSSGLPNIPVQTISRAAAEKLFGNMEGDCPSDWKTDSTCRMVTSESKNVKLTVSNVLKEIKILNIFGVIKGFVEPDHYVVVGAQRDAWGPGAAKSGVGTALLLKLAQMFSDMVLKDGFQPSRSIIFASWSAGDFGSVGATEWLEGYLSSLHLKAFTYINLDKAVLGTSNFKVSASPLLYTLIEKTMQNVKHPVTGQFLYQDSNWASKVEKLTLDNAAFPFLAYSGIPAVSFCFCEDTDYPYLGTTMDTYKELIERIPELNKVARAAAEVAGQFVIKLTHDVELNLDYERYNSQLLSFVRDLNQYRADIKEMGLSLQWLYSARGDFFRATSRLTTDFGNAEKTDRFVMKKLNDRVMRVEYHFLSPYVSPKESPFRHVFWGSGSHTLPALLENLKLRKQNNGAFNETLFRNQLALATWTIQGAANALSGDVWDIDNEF

“OKT9 control anti-TfR1 antibody (mouse IgG)”: the Kd was determined as 0.536 nM and the on-rate (kon) amounted to 774000 M⁻¹ s⁻¹.
